Test results as given in PMC10392983, “Allosteric activation or inhibition of PI3Kγ mediated through conformational changes in the p110γ helical domain” (eLife, 2023).
Values joined by “and” are separate entries in the source; they are usually repeats but may differ in a detail not shown here. Equal entries are not always repeated.

B1: Nanobody NB7-PIK3CG (VHH)
VHH: QVQLVESGGGLVQPGGSLRLSCAASGSIFSINAMGWYRQAPGKQRELVAHITSGGSTNYADSVKGRFTISRDNAKNTVYLQMNSLKPEDTAVYYCNEAGDPFLGSTWNGPPAFGSWGQGTQVTVSS
notes: the nanobody chain of PDB 8DP0 (deposited here); Expressed from a pMESy4 vector; also called His-NB7; nanobody 7; source: E. coli WK6 periplasm, purified (HisTrap, Superdex 75); not shown: His6, C-terminal, kept
B2: Nanobody NB7-PIK3CG (VHH)
VHH: B1 VHH
notes: Expressed from a pMESy4 vector; first described in Rathinaswamy et al., 2021b; also called His-NB7; nanobody 7; source: periplasm of WK6 E. coli, purified (HisTrap, Superdex 75); not shown: His6, C-terminal, kept

Key:
Conditions in all cases: both partners purified
p110γ-p84 complex = target: T1, p110γ-p84 complex (Homo sapiens p110γ; Mus musculus p84, UniProt P48736;Q3U6Q4); assay: BLI; His-tagged NB7 (500 nM) immobilised on Anti-Penta-His biosensor; PI3K complexes in solution (dose response 50-1.9 nM; class IA comparison at 50 nM); 600 s association, 1200 s dissociation; 20 mM Tris pH 8.5, 100 mM NaCl, 50 mM ammonium sulfate, 0.1% BSA, 0.02% Tween 20; global fit to a 1:1 model
T1 construct: Homo sapiens p110γ (PIK3CG), full-length; Mus musculus p84 regulatory subunit of PI3Kγ; The purification tag stood on p84 only; also called PI3Kγ p110γ-p84; not shown: His10, N-terminal, cleaved; 2x Strep, N-terminal, cleaved
T1 sequence (P48736 whole entry, chain 1 of 2): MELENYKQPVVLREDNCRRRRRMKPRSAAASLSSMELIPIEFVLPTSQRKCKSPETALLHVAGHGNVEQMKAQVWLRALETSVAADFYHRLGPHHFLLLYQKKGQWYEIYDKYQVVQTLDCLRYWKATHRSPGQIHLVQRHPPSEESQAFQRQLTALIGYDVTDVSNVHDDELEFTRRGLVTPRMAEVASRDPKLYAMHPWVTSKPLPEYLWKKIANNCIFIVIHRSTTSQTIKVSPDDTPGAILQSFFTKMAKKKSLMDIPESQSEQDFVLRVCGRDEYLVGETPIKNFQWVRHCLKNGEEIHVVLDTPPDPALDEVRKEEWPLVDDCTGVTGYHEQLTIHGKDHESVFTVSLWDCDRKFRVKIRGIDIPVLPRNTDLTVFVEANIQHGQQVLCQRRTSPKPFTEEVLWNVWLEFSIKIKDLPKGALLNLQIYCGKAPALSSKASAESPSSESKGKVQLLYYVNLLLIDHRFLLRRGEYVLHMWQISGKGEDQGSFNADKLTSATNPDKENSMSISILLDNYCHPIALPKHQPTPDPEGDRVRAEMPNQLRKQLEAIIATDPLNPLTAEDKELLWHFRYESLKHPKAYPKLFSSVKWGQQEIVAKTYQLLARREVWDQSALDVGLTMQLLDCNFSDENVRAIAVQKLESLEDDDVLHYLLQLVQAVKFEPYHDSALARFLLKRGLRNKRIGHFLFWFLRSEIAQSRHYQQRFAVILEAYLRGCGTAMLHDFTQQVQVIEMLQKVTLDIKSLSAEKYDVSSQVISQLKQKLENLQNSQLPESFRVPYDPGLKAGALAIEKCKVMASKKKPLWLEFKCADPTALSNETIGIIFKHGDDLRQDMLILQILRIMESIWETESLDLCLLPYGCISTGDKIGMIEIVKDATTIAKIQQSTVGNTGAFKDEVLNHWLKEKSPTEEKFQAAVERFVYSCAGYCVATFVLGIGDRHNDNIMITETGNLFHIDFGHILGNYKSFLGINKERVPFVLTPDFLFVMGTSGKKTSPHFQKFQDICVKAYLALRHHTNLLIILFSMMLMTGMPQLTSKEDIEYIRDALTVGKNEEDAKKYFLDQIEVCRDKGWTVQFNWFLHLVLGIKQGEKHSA
T1 sequence (Q3U6Q4 whole entry, chain 2 of 2): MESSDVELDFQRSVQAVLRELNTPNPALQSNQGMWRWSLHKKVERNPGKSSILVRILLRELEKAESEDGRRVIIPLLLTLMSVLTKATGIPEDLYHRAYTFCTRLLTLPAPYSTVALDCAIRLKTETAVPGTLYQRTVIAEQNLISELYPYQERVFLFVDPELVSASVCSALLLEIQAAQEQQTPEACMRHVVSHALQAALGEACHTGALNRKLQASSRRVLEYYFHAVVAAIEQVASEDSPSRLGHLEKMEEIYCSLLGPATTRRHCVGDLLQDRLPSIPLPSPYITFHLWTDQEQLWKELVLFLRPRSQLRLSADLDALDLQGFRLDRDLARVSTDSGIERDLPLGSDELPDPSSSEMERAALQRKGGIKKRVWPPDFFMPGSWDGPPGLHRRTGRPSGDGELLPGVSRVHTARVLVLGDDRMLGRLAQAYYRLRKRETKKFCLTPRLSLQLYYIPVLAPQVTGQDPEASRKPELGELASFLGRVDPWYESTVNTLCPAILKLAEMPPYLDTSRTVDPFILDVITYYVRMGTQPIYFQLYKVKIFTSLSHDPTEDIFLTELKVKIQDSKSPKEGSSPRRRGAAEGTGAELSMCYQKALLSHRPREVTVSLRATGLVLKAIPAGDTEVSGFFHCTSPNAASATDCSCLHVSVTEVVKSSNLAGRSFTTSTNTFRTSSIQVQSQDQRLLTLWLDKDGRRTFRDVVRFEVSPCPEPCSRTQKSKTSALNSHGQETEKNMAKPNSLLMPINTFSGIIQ

p110γ-p101 complex [1] = target: T2, p110γ-p101 complex (Homo sapiens p110γ; Sus scrofa p101, UniProt P48736;PDB); assay: as above
T2 construct: Homo sapiens p110γ (PIK3CG), full-length; Sus scrofa p101 regulatory subunit of PI3Kγ; The purification tag stood on p101 only; also called PI3Kγ p110γ-p101; not shown: His10, N-terminal, cleaved; 2x Strep, N-terminal, cleaved
T2 sequence (P48736 whole entry, chain 1 of 2): as the sequence (P48736 whole entry, chain 1 of 2) above
T2 sequence (O02696 whole entry, chain 2 of 2, further chain): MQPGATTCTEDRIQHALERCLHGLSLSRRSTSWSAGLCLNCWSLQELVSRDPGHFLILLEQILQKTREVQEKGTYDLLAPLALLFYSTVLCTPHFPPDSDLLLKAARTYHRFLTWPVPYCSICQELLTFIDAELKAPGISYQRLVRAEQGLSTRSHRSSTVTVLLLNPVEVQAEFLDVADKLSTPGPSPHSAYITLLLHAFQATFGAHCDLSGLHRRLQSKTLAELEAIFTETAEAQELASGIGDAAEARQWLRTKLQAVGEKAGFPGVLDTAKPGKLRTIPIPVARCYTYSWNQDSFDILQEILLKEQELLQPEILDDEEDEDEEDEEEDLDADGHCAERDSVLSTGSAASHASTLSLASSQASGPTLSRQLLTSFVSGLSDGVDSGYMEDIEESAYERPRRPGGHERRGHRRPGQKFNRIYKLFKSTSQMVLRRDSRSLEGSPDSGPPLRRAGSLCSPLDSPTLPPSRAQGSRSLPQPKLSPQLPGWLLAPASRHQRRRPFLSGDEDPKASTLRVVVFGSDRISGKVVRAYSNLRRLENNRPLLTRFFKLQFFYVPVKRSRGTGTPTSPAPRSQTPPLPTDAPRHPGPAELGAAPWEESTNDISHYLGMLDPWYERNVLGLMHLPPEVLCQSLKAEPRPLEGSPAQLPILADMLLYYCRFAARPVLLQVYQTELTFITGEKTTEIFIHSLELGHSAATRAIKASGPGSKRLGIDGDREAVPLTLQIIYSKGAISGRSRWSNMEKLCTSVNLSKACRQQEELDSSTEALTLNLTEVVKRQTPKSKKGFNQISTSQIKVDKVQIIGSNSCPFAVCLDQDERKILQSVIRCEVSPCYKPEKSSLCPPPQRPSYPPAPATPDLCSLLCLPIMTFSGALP

p110α-p85 complex = target: T3, p110α-p85 complex (Homo sapiens (assumed), UniProt P42336;O00459); assay: as above
T3 construct: p110α catalytic subunit of class IA PI3K; plasmid as previously described; p85 regulatory subunit; the legend says only p85; also called PI3Kα

p110β-p85 complex = target: T4, p110β-p85 complex (Homo sapiens (assumed), UniProt P42338;O00459); assay: as above
T4 construct: p110β catalytic subunit of class IA PI3K; plasmid as previously described; p85 regulatory subunit; the legend says only p85; also called PI3Kβ

p110δ-p85 complex = target: T5, p110δ-p85 complex (Homo sapiens (assumed), UniProt O00329;O00459); assay: as above
T5 construct: p110δ catalytic subunit of class IA PI3K; plasmid as previously described; p85 regulatory subunit; the legend says only p85; also called PI3Kδ

p110γ-p101 complex [2] = target: T6, p110γ-p101 complex (Homo sapiens p110γ; Sus scrofa p101, UniProt P48736;PDB); assay: BLI; His-NB7 (500 nM) immobilised on Anti-Penta-His (HIS1K) biosensor, dipped into p110γ, p110γ-p84 or p110γ-p101 (50-1.9 nM); association 600 s, dissociation 1200 s; Octet buffer 20 mM Tris pH 8.5, 100 mM NaCl, 50 mM ammonium sulfate, 0.1% BSA, 0.02% Tween 20; 1:1 model; the sheet gives one set of constants for each analyte concentration (column Conc. (nM))
T6 construct: p110γ, Homo sapiens, from plasmid pMultiBac-hsp110γ-ssp101; p101 regulatory subunit, Sus scrofa, from plasmid pMultiBac-hsp110γ-ssp101; The purification tag stood on the N-terminus of p101 and was removed by TEV protease; also called p110gp101; not shown: 10x histidine, N-terminal, cleaved; 2x strep, N-terminal, cleaved
T6 sequence (P48736 whole entry, chain 1 of 2): as the sequence (P48736 whole entry, chain 1 of 2) above
T6 sequence (O02696 whole entry, chain 2 of 2, further chain): as the sequence (O02696 whole entry, chain 2 of 2, further chain) above

| Binder | Kd (p110γ-p84 complex) | Kd (p110γ-p101 complex [1]) | binding result (p110α-p85 complex) | binding result (p110β-p85 complex) | binding result (p110δ-p85 complex) | kon (p110γ-p101 complex [2]) |
| --- | --- | --- | --- | --- | --- | --- |
| B1 | ~2 nM | ~2 nM | no binding (tested: 50 nM) | no binding (tested: 50 nM) | no binding (tested: 50 nM) | – |
| B2 | – | – | – | – | – | 105000 M⁻¹ s⁻¹ and 111000 M⁻¹ s⁻¹ and 50200 M⁻¹ s⁻¹ |
